Numbering of substitutions follows the chain as printed. Numbers in names are those of the source. Where two headings read alike, the source gives them in different places.
Columns and labels:
[1] = In vitro α-olefin synthesis by purified His-tagged protein with hydrogen peroxide; assay type: biochemical; details: 200 μL purified protein, 200 μM hydrogen peroxide, 200 μM potassium hexadecanoate, room temperature overnight
Description: E. coli C41 DE3 (ΔfadE) cells were transformed with pET15b-orfKRH21570 using routine transformation techniques. Protein expression was carried out by first inoculating 5 mL of LB broth supplemented with 100 mg/L carbenicillin with a colony of the E. coli strain which was followed by shaking the cells overnight at 37° C. to produce a starter culture. This starter culture was used to inoculate 0.5 L of LB media supplemented with 100 mg/L of carbenicillin. The culture was shaken at 37° C. until an OD600 value of 0.6 was reached, after which it was induced with 1 mM IPTG and 0.5 mM delta-aminolaevulinic acid. The culture was then shaken at 25° C. for approximately 18 h. The protein was purified as described in Example 12.
To assay the activity of ORF_KRH21570, 200 μL of purified protein was incubated with 200 μM of hydrogen peroxide and 200 μM of potassium hexadecanoate. As a negative control, the same reaction was conducted, but without the addition of either purified protein (100 mM sodium phosphate pH 7.2 was used in its place) or free fatty acid. The reactions were performed in duplicates and incubated at room temperature overnight. […] Trimethylanilinium hydroxide was added to the ethyl acetate layer at a 1:1 ratio and the extracts analyzed by GC/MS using the MAR_splitless_short method. […]

[2] = Specific activity of α-olefin and α/β-hydroxy fatty acid formation by purified enzymes; assay type: biochemical; details: for specific activity for 1-pentadecene formation: 500 μM H2O2, 200 μM potassium hexadecanoate, pH 7.2, room temperature, comparison between enzymes
Description: The specific activity of α-olefin formation as well as α-(2) and β-(3)hydroxy fatty acid formation were determined for ORF880, CYP152A1, and CYP152A1 Q85H (see Examples 12 and 16). An E. coli BL21 strain (DE3) (Invitrogen) was transformed with either pET15b-orf 880, pET15b-cyp152A1, and pET15b-cyp152A1 Q85H using routine chemical transformation techniques. Protein expression was carried out by first inoculating a colony of the E. coli strain in 5 mL of LB media supplemented with 100 mg/L of carbenicillin and shaken overnight at 37° C. to produce a starter culture. This starter culture was used to inoculate 0.5 L of LB media supplemented with 100 mg/L of carbenicillin. The culture was shaken at 37° C. until an OD600 value of 0.6 was reached. The culture was placed on ice for 10 min before IPTG was added to a final concentration of 250 μM. The culture was shaken at 25° C. for approximately 18 h, and then centrifuged at 3,700 rpm for 20 min at 4° C. The pellet was then resuspended in 10 mL of buffer containing 100 mM sodium phosphate buffer at pH 7.2 supplemented with Bacterial ProteaseArrest (GBiosciences). The cells were then sonicated at 12 W on ice for 9 sec with 1.5 sec of sonication followed by 1.5 sec of rest. This procedure was repeated 5 times with one min intervals between each sonication cycle. The cell free extract was centrifuged at 10,000 rpm for 30 min at 4° C. 5 mL of Ni-NTA (Qiagen) was added to the supernatant, and the mixture was gently stirred at 4° C. The slurry was passed over a column removing the resin from the lysate. The resin was then washed with 30 mL of buffer containing 100 mM sodium phosphate buffer at pH 7.2 plus 30 mM imidazole. Finally, the protein was eluted with 15 mL of 100 mM sodium phosphate buffer at pH 7.2 plus 250 mM imidazole. The protein solution was dialyzed with 200 volumes of 100 mM sodium phosphate buffer at pH 7.2 with 20% glycerol. Protein concentration was determined using the Bradford assay (Biorad). 578 μg/mL of ORF880, 865 μg/mL of CYP152A1, and 653 μg/mL of CYP152A1 Q85H protein was obtained.
To determine the specific activity with potassium hexadecanoate, the following reactions were set-up where each time point consisted of 500 μL. Each reaction contained of 500 μM H2O2, 200 μM of potassium hexadecanoate, 100 mM sodium phosphate buffer at pH 7.2, and protein at the following concentrations: ORF880-0.23 or 0.46 μM; CYP152A1-8.65, 17.3, or 34.6 μM; CYP152A1 Q85H-6.53, 13.06, or 26.12 μM. The reactions were carried out at room temperature and time points were taken at 0, 1, 3, 5, 7, 10, 14, and 20 minutes. Reactions were quenched with 50 μL of 12 M HCl and then extracted with 200 μL of ethyl acetate. 50 μL of this extract was then reacted with 50 μL N,O-Bis(trimethylsilyl)trifluoroacetamide with trimethyl-chlorosilane (Aldrich). Samples were analyzed using GC/MS using the following parameters: run time: 20 min; column: HP-5-MS Part No. 190915-433E (length of 30 meters; I.D.: 0.25 mm narrowbore; film: 0.25 μM); inject: 1 μL Agilent 6850 inlet; inlet: 300° C. splitless; carrier gas: helium; flow: 1.3 mL/min; oven temp: 100° C. hold 5 min, 320° C. at 20° C./min, 320° C. hold 5 min; det: Agilent 5975B VL MSD; det. temp: 300° C.; scan: 50-500 M/Z. Calibration curves were generated using 1-pentadecene, α(2)-hydroxyhexadecanoic acid, and β(3)-hydroxyhexadecanoic acid dissolved in ethyl acetate and derivatized as described herein.
Based upon this analysis, product formation was determined to be linear within the first three minutes. The specific activities for each enzyme concentration in the linear range were averaged for a given reaction (e.g., decarboxylation, α-hydroxylation, or β-hydroxylation). FIG. 21 summarizes the results. The specific activity for 1-pentadecene formation was similar for ORF880 and CYP152A1. Mutating the glutamine 85 residue to a histidine increased the specific activity of 1-pentadecene formation (i.e., increased fatty acid decarboxylase activity). […]

[3] = test system: E. coli C41 ΔfadE; assay type: cell-based
Description: Genomic DNA encoding C. efficiens YS-134 (DSMZ44549) orfCE2459 (SEQ ID NO:6) was cloned into the NcoI and EcoRI sites of vector OP-80 (pCL1920 derivative) under the control of the Ptrc promoter. The resulting construct was then transformed into E. coli C41 ΔfadE.
The cells were grown at 37° C. in M9 minimal media supplemented with 20 μg/mL uracil, 1% glucose (w/v), and 100 μg/mL spectinomycin. When the culture reached an OD600 of 0.8 to 1.0, it was induced with 1 mM IPTG supplemented with 0.5 mM delta-aminolaevulinic acid (heme biosynthesis precursor), and 0.05% stearic acid (as a substrate for orfCE2459). The temperature was shifted to 25° C. and cells were allowed to grow for an additional 18-20 h Cells from 1 mL of culture were resuspended with 100 μL of methanol, sonicated for 30 min, and extracted with 300 μL of ethyl acetate. After vortexing for 15 min, 300 μL of water was added, and the mixture was vortexed for another 15 min before centrifugation at 15,000 rpm for 10 min. The solvent layer was analyzed by GC-MS.
Genomic DNA encoding Kokuria rhizophila DC2201 orfKRH21570 (SEQ ID NO:8), which was codon optimized (SEQ ID NO:9) for expression in E. coli, was cloned into the NdeI and XhoI sites of vector OP-183 (pACYC177 derivative) under the control of the Ptrc promoter. The resulting construct was then transformed into E. coli C41 ΔfadE. The cells were grown, extracted, and analyzed as in described in Example 7.
The genomic DNA encoding Bacillus subtilis fatty acid hydroxylase, Cyp152A1 (SEQ ID NO:13) or P450Bsβ, was cloned into the NdeI and XhoI sites of vector OP-183 (pACYC177 derivative) under the control of the Ptrc promoter. The construct was used as a template to introduce a mutation at position 85 changing the Glu to His using the following primer: GTTAATGCGATTCAcGGAATGGATGGC. The resulting constructs were then transformed into E. coli C41 (ΔfadE). The cells were grown at 37° C. in M9 minimal media supplemented with 20 μg/mL uracil, 1% glucose (w/v), and 100 μg/mL carbenicillin. When the culture reached OD600 of 0.8-1.0, it was induced with 1 mM IPTG; supplemented with 0.5 mM delta-aminolaevulinic acid (heme biosynthesis precursor) and 0.05% stearic acid (as a substrate for Bsb). The temperature was shifted down to 25° C. and cells were allowed to grow for an additional 18-20 h. Cells from 1 mL of culture was resuspended with 100 μL of methanol, sonicated for 30 min, and extracted with 300 μL of ethyl acetate. After vortexing the extract for 15 min, 300 μL of water was added, vortexed for another 15 minutes before centrifugation at 15,000 rpm for 10 minutes. The solvent layer was analyzed by GC-MS.

[4] = with 0.05% stearic acid feeding
[5] = compared with the wild-type version of CYP152A1

B1: orf_Mpop1292: ORF880 homolog P450 enzyme from Methylobacterium populi, ZP_02200540 (protein, listed as Methylobacterium populi)
chain: MPAAIATHRFRKARTLPREPAPDSTLALLREGYGFIRNRCRRHDSDLFAARLLLSPVICMSGAEAARHFYDGHRFTRRHALPPTSFALIQDHGSVMVLDGAAHLARKAMFLSLVGEEALQRLAGLAERHWREAVSGWARKDTVVLLDEAHRVLTAAVCEWVGLPLGPTEVDARAREFAAMIDGTGAVGPRNWRGHLYRARTERWVRKVIDEIRSGRRDVPPGAARTIAEHQDADGQRLDRTVAGVELINVLRPTVANARYIVFAAMALHDHPHQRAALADGGEAAERFTDEVRRFYPFIPFIGGRVRAPFHFGGHDFREGEWVLMDLYGTNRDPRLWHEPERFDPDRFARETIDPFNMVSHGAGSARDGHRCPGEGITRILLRTLSRQLAATRYTVPPQDLTLDLAHVPARPRSGFVMRAVHAP
With B1 the “α-olefin formed from hexadecanoic acid” value [1] was 1-pentadecene.

B2: CYP152A1: Bacillus subtilis fatty acid hydroxylase, NP_388092 (protein, listed as Bacillus subtilis)
chain: MNEQIPHDKSLDNSLTLLKEGYLFIKNRTERYNSDLFQARLLGKNFICMTGAEAAKVFYDTDRFQRQNALPKRVQKSLFGVNAIQGMDGSAHIHRKMLFLSLMTPPHQKRLAELMTEEWKAAVTRWEKADEVVLFEEAKEILCRVACYWAGVPLKETEVKERADDFIDMVDAFGAVGPRHWKGRRARPRAEEWIEVMIEDARAGLLKTTSGTALHEMAFHTQEDGSQLDSRMAAIELINVLRPIVAISYFLVFSALALHEHPKYKEWLRSGNSREREMFVQEVRRYYPFGPFLGALVKKDFVWNNCEFKKGTSVLLDLYGTNHDPRLWDHPDEFRPERFAEREENLFDMIPQGGGHAEKGHRCPGEGITIEVMKASLDFLVHQIEYDVPEQSLHYSLARMPSLPESGFVMSGIRRKS
With B2 the “specific activity for 1-pentadecene formation” value [2] was “similar” and the α-olefin produced [3, 4] was 1-heptadecene.

B3: CYP152A1 Q85H (protein, UniProt O31440 1-417, looked up, variant Q85H)
Fatty-acid peroxygenase: B2 chain with Q85H
For B3, the “specific activity for 1-pentadecene formation” value [2] was “increased”, the “rate of α-hydroxyhexadecanoic acid formation” value [2, 5] was “lowered” and the “rate of β-hydroxyhexadecanoic acid formation” value [2, 5] was “increased”. The α-olefin produced [3, 4] was “capable of carrying out this reaction”.

B4: orf_KRH21570: ORF880 homolog P450 enzyme from Kokuria rhizophila DC2201, YP_001856010 (protein, listed as Kokuria rhizophila)
chain: MTSPFGQTRSEQGPSLLRSGYLFASRARRRAGLSSDSGCPVRMPLLGKQTVLVRGEEGVKLFYDTSRVRRDGAMPGVVQGPLFGAGAVHGLDGEAHRVRKNQLADMAYEDERVAAYKPFVAEELENLVARWKDGDNVYDSTAIAFGRASFRWAGLQWGVPEMDRWARRMSRLLDTFGRPATHLVSRLDRIALDRRFAALIKDVRAGKVNAPEDSVLAHMAALVDEHGELVDAKTAGIELQNLTRPNVAVARFAAFAATALVEHPEWVERIRAASEQRGGTLLDVPEAVAFAQEVRRVYPFVPMLPAEVTQDTEIQGCPVHKGERVVLDILGTNTDPTSWDRAATFDPERFLGVEDAEAITTFIPQGGAEVRTGHRCPGEKIAVTSLSAAVVALCRPEVQLPGDQDDLTFSWTHMLTRPVTGVRVRTTR
For B4, the “α-olefin formed from hexadecanoic acid” value [1] was 1-pentadecene, the α-olefin produced [3, 4] was 1-heptadecene and the α-olefin produced ([3]; without stearic acid feeding, grown on glucose) was 1-heptadecadiene.
